The values below come from patent publication US20130123349A1 (US Dept. of Health and Human Services, published 2013).

For experiment [1], the target named is T1, soluble collagen type I (pepsin-digested, non-fibrillar, triple helical; BD Biosciences) (human, UniProt P02452 179-1192; P08123 91-1104).
T1 construct: also called collagen I; monomeric type I collagen
Description: SPR, […]; concentration not given. (SPR reads the build-up and loss of mass on a sensor chip optically.)

Experiment [2] addresses T1, soluble collagen type I …. As to the kind of experiment: SPR, C-terminus-2 (5 to 250 nM) over immobilized soluble collagen type I, two-state model.
The target of experiment [3] is T1, soluble collagen type I …. As to the kind of experiment: SPR, global two-state binding model, immobilized soluble collagen type I.
Experiment [4] addresses T1, soluble collagen type I …. Description: SPR at 15-40 °C, van't Hoff analysis, Aegyptin over immobilized collagen type I; value (±SE).
In experiment [5] the target is T1, soluble collagen type I …. Description: SPR, Aegyptin over immobilized soluble collagen type I, 180 s at 30 µl/min, two-state model; Ka1.
The target of experiment [6] is T2, soluble collagen type III (pepsin-digested, non-fibrillar; BD Biosciences) (human, UniProt P02461 168-1196).
T2 construct: also called collagen III; soluble collagen III
T2 sequence: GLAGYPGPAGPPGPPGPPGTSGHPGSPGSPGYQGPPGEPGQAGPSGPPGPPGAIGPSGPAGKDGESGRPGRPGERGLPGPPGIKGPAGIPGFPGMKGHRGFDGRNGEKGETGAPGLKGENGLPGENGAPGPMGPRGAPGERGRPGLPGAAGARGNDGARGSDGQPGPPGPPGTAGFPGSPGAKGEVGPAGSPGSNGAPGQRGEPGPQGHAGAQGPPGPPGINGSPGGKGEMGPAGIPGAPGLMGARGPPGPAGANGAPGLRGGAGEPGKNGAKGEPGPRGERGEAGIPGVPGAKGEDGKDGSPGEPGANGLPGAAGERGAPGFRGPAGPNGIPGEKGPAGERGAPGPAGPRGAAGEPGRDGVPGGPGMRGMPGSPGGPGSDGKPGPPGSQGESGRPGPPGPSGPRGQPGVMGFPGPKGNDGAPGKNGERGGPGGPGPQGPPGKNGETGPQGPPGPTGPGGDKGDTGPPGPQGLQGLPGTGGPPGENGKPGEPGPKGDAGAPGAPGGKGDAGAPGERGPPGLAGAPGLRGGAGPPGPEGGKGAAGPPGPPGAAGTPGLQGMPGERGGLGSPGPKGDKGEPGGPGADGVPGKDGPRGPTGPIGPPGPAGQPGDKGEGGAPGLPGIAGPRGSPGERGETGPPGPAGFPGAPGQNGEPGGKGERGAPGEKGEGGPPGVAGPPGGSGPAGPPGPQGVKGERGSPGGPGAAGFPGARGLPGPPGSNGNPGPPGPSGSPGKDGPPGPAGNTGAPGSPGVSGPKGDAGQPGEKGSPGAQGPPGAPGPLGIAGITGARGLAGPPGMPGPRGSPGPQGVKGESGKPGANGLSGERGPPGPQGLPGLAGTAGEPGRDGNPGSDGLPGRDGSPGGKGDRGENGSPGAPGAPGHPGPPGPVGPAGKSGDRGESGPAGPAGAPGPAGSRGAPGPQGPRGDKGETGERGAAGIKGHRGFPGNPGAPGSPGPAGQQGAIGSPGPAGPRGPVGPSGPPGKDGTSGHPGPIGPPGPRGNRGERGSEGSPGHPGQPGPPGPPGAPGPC
Description: ELISA, inhibition of vWf (3 nM) binding to coated soluble collagen type III; competitor vWf. Background: An ELISA detects its analyte on a solid surface through an enzyme-linked reagent.

The target of experiment [7] is T3, heat-denatured soluble collagen type I (90 min at 98 °C) (human, UniProt P02452 179-1192; P08123 91-1104).
T3 construct: also called Collagen denatured; heat-denatured collagen
T3 sequence (P02452 179-1192, chain 1 of 2): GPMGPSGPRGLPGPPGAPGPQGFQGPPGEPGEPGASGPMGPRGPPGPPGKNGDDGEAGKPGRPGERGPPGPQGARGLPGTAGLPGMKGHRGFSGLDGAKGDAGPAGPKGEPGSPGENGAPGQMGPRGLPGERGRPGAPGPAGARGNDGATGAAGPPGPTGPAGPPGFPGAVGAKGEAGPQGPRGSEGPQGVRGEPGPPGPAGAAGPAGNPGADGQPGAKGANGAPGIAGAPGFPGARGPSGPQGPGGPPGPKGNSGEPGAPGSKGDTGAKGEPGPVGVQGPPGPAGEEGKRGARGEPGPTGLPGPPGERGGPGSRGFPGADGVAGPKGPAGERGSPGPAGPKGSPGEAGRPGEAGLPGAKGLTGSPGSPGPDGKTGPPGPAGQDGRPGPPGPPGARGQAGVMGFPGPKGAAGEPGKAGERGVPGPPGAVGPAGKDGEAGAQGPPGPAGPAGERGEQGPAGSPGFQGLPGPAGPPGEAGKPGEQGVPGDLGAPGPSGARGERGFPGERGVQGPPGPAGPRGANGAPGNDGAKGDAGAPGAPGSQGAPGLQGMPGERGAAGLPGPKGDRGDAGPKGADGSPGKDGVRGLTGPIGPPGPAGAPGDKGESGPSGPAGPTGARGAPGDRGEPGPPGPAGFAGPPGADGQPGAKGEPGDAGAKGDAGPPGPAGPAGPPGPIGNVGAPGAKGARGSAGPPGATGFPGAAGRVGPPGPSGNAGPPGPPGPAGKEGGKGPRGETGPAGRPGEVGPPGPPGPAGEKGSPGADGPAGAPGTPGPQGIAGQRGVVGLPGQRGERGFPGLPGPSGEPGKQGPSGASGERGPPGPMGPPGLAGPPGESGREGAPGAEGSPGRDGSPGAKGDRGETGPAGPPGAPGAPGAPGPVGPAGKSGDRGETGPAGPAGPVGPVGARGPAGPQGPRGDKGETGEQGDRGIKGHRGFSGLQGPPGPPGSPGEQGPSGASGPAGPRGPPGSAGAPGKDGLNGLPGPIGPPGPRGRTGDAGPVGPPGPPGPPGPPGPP
T3 sequence (P08123 91-1104, chain 2 of 2): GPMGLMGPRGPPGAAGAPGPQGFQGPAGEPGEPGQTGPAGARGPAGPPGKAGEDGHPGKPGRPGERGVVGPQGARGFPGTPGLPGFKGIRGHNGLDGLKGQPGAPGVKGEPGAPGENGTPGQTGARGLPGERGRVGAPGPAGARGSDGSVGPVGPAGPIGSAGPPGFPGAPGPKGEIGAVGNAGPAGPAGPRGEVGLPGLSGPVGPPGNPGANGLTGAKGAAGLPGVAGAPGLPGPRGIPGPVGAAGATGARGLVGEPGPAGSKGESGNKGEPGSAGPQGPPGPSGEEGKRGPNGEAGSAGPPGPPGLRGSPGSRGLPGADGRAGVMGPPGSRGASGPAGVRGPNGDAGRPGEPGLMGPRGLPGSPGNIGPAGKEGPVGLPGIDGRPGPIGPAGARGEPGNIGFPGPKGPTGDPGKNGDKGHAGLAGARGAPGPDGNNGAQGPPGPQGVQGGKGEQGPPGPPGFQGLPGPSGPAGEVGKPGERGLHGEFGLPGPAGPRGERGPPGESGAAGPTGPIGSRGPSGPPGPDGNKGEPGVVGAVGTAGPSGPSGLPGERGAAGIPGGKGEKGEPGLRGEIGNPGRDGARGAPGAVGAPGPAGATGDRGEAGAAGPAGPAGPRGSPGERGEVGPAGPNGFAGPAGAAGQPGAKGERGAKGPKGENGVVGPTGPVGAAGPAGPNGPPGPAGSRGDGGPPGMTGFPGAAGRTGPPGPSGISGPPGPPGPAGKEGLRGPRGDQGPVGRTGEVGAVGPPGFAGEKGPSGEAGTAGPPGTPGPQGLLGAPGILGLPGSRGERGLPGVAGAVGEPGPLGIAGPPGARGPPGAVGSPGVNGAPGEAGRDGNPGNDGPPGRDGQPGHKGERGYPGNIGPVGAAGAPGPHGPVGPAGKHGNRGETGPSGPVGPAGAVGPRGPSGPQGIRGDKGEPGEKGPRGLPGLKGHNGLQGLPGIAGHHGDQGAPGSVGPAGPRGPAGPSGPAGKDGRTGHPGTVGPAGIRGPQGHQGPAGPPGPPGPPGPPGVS
As to the kind of experiment: SPR, Aegyptin over immobilized heat-denatured collagen type I, two-state model; Ka1.

T1 sequence (P02452 179-1192 limits assumed, chain 1 of 2): as the sequence (P02452 179-1192, chain 1 of 2) above
T1 sequence (P08123 91-1104 limits assumed, chain 2 of 2): as the sequence (P08123 91-1104, chain 2 of 2) above

B1: C-terminus 1 of Aegyptin (113 aa) (other)
chain: RQVVALLDKDTKVDHIQSEYLRSALNNDLQSEVRVPVVEAIGRIGDYSKIQGCFKSMGKDVKKVISEEEKKFKSCMSKKKSEYQCSEDSFAAAKSKLSPITSKIKSCVSSKGR
For B1, the binding result in experiment [1] is given as “no binding”.

B2: C-terminus-2 of Aegyptin (137 aa) (other)
chain: GGDEGEDNAEDSKGSEKNDPADTYRQVVALLDKDTKVDHIQSEYLRSALNNDLQSEVRVPVVEAIGRIGDYSKIQGCFKSMGKDVKKVISEEEKKFKSLMSKKKSEYQCSEDSFAAAKSKLSPITSKIKSCVSSKGR
notes: also called C-terminal-2; C-terminus 2 domain
As a reminder, the Kd is the concentration at which binding is half-saturated. The low end stands for tighter binding, the high end for weaker binding. Turning to B2, the Kd in experiment [2] is roughly 60 nM; in experiment [3], 60.9 nM.

B3: recombinant Aegyptin (other)
chain: RPMPEDEEPVAEGGDDDASGESEGEEETTDDAGGDGGEEENEGEEHAGDKDAGGEDTGKEENTGHDDAGEEDAGEEDAGEEDAGEEDAGEEDAEKEEGEKEDAGDDAGSDDGEEDSTGGDEGEDNAEDSKGSEKNDPADTYRQVVALLDKDTKVDHIQSEYLRSALNNDLQSEVRVPVVEAIGRIGDYSKIQGCFKSMGKDVKKVISEEEKKFKSCMSKKKSEYQCSEDSFAAAKSKLSPITSKIKSCVSSKGRHHHHHH
Usually kon stands for the rate constant with which the complex forms. Usually IC50 stands for the concentration that inhibits the measured activity by half. Regarding B3, the “ΔS°” value in experiment [4] was 95 J/(K * mol). In addition, the kon amounted to 3.63e+06 M⁻¹ s⁻¹ in experiment [5] and 674000 M⁻¹ s⁻¹ in experiment [7]. The molecule also registered an IC50 in experiment [6] of 50 nM.
